Results reported in patent US7291332B2, “Inflammatory mediator antagonists” (SmithKline Beecham Corporation, priority 1998, dated 2007).

System: HepG2 B6 cells (STAT-sPAP reporter)
Test: OSM-GST mutant driven sPAP production in HepG2 B6 assay
Assay type: cell-based, human
Conditions: for 'Potency': relative to wild type, from Mean %
Experimental: HepG2 B6 cells were plated into 96 well plates to a final concentration of 3×10^4 cells per well in 100 μl of media (DMEM (Sigma), 10% HI FCS, 1% non-essential amino acids, 2 mM Glutamine, 500 μg ml^−1 G418, (all from Life Technologies)). Cells were allowed to equilibrate for 48 hours. Putative anti-OSM solid compounds were made up to a stock dilution of 20 mM in DMSO and serially diluted 1:3 in DMSO. This was then further diluted in HepG26B assay media, this is as above media but with 1% heat inactivated FCS, low alkaline phosphatase activity (Life Technologies) substituted for 10% HI FCS. Compounds were diluted 1:3 from a top concentration of […] to a final concentration of 0.09 μM in a final concentration of 1% DMSO. (That is 200, 66.67, 22.22, 7.41, 2.47, 0.82, 0.27, 0.09 and 0 μM). The old media was removed from the wells and replaced with diluted compound also containing 2 ng ml^−1 OSM (R&D Systems), cells were incubated for a further 20 hours. Each dilution was performed in triplicate. 20 μl of media was removed from each well and assayed for sPAP activity using pNPP (p-Nitrophenyl phosphate; Sigma), as a substrate. Endogenous alkaline phosphatase is blocked with L-homoarginine. Optical density of substrate is read at 405-650 nm. Concentration of compound is plotted against OD as a measure of sPAP produced and can be analysed to determine IC50 values.
The assay described in Example 7b above was employed. OSM-GST mutants were diluted to a concentration of 100 ng ml^−using the known concentration of intact OSM mutants generated in Example 9b. A wild type OSM-GST was included for control purposes. Dilutions were made in HepG2 B6 media with 1% heat inactivated FCS, low alkaline phosphatase activity. Serial 1:3 dilutions were then made. (100; 33.33; 11.11; 3.7; 1.23; 0.4 ng ml^−1). 3×10^4 HepG2 B6 were dispensed into individual well of a 96 well plate in 100 μl of media. Cells were allowed to equilibrate for 48 hours. Media was then removed and replaced with 100 μl of diluted OSM-GST mutant. Cells were incubated for a further 20 hours. Each dilution was performed in triplicate. 20 μl of media was removed and assayed for sPAP using pNPP as a substrate. Endogenous ALP was blocked with L-homoarginine. O.D. was read at 405-650 nm. The experiment was repeated twice.

Row | Molecule | Expt 1 EC50 | Expt 2 EC50 | 'Potency' | Expt 3 EC50
1 | (19) L119A: OSM-GST fusion, alanine for Leu 119 (protein, left off: a dimerising Fc or GST; large carriers; small tags and cut ends) AAIGSCSKEYRVLLGQLQKQTDLMQDTSRLLDPYIRIQGLDVPKLREHCRERPGAFPSEETLRGLGRRGFLQTLNATLGCVLHRLADLEQRLPKAQDLERSGLNIEDLEKLQMARPNIAGLRNNIYCMAQLLDNSDTAEPTKAGRGASQPPTPTPASDAFQRKLEGCRFLHGYHRFMHSVGRVFSKWGESPNRSRR | 0.0278 µg/mL | 0.023 µg/mL | EQUAL (80-120% Equal potency) | –
2 | (3) E9A: OSM-GST fusion, alanine for Glu 9 (protein, left off: a dimerising Fc or GST; large carriers; small tags and cut ends) AAIGSCSKAYRVLLGQLQKQTDLMQDTSRLLDPYIRIQGLDVPKLREHCRERPGAFPSEETLRGLGRRGFLQTLNATLGCVLHRLADLEQRLPKAQDLERSGLNIEDLEKLQMARPNILGLRNNIYCMAQLLDNSDTAEPTKAGRGASQPPTPTPASDAFQRKLEGCRFLHGYHRFMHSVGRVFSKWGESPNRSRR | 0.0236 µg/mL | 0.0089 µg/mL | MORE (<80% More potent) | –
3 | (26) Q25A: OSM-GST fusion, alanine for Gln 25 (protein, left off: a dimerising Fc or GST; large carriers; small tags and cut ends) AAIGSCSKEYRVLLGQLQKQTDLMADTSRLLDPYIRIQGLDVPKLREHCRERPGAFPSEETLRGLGRRGFLQTLNATLGCVLHRLADLEQRLPKAQDLERSGLNIEDLEKLQMARPNILGLRNNIYCMAQLLDNSDTAEPTKAGRGASQPPTPTPASDAFQRKLEGCRFLHGYHRFMHSVGRVFSKWGESPNRSRR | 0.0133 µg/mL | 0.013 µg/mL | MORE (<80% More potent) | –
4 | (1) S7A: OSM-GST fusion, alanine for Ser 7 (protein, left off: a dimerising Fc or GST; large carriers; small tags and cut ends) AAIGSCAKEYRVLLGQLQKQTDLMQDTSRLLDPYIRIQGLDVPKLREHCRERPGAFPSEETLRGLGRRGFLQTLNATLGCVLHRLADLEQRLPKAQDLERSGLNIEDLEKLQMARPNILGLRNNIYCMAQLLDNSDTAEPTKAGRGASQPPTPTPASDAFQRKLEGCRFLHGYHRFMHSVGRVFSKWGESPNRSRR | 0.012 µg/mL | 0.0222 µg/mL | MORE (<80% More potent) | –
5 | (25) Y130A: OSM-GST fusion, alanine for Gln 130 (protein, left off: a dimerising Fc or GST; large carriers; small tags and cut ends) AAIGSCSKEYRVLLGQLQKQTDLMQDTSRLLDPYIRIQGLDVPKLREHCRERPGAFPSEETLRGLGRRGFLQTLNATLGCVLHRLADLEQRLPKAQDLERSGLNIEDLEKLQMARPNILGLRNNIYCMAALLDNSDTAEPTKAGRGASQPPTPTPASDAFQRKLEGCRFLHGYHRFMHSVGRVFSKWGESPNRSRR | 0.0125 µg/mL | 0.0082 µg/mL | MORE (<80% More potent) | –
6 | (24) Y126A: OSM-GST fusion, alanine for Tyr 126 (protein, left off: a dimerising Fc or GST; large carriers; small tags and cut ends) AAIGSCSKEYRVLLGQLQKQTDLMQDTSRLLDPYIRIQGLDVPKLREHCRERPGAFPSEETLRGLGRRGFLQTLNATLGCVLHRLADLEQRLPKAQDLERSGLNIEDLEKLQMARPNILGLRNNIACMAQLLDNSDTAEPTKAGRGASQPPTPTPASDAFQRKLEGCRFLHGYHRFMHSVGRVFSKWGESPNRSRR | 0.093 µg/mL | 0.0103 µg/mL | LESS (>120% Less potent than wild type) | 0.0408 µg/mL
7 | (27) D26A: OSM-GST fusion, alanine for Asp 26 (protein, left off: a dimerising Fc or GST; large carriers; small tags and cut ends) AAIGSCSKEYRVLLGQLQKQTDLMQATSRLLDPYIRIQGLDVPKLREHCRERPGAFPSEETLRGLGRRGFLQTLNATLGCVLHRLADLEQRLPKAQDLERSGLNIEDLEKLQMARPNILGLRNNIYCMAQLLDNSDTAEPTKAGRGASQPPTPTPASDAFQRKLEGCRFLHGYHRFMHSVGRVFSKWGESPNRSRR | 0.0195 µg/mL | 0.0255 µg/mL | EQUAL (80-120% Equal potency) | –
8 | (21) R122A: OSM-GST fusion, alanine for Arg 122 (protein, left off: a dimerising Fc or GST; large carriers; small tags and cut ends) AAIGSCSKEYRVLLGQLQKQTDLMQDTSRLLDPYIRIQGLDVPKLREHCRERPGAFPSEETLRGLGRRGFLQTLNATLGCVLHRLADLEQRLPKAQDLERSGLNIEDLEKLQMARPNILGLANNIYCMAQLLDNSDTAEPTKAGRGASQPPTPTPASDAFQRKLEGCRFLHGYHRFMHSVGRVFSKWGESPNRSRR | 0.0324 µg/mL | 0.0138 µg/mL | EQUAL (80-120% Equal potency) | 0.0473 µg/mL
9 | (2) K8A: OSM-GST fusion, alanine for Lys 8 (protein, left off: a dimerising Fc or GST; large carriers; small tags and cut ends) AAIGSCSAEYRVLLGQLQKQTDLMQDTSRLLDPYIRIQGLDVPKLREHCRERPGAFPSEETLRGLGRRGFLQTLNATLGCVLHRLADLEQRLPKAQDLERSGLNIEDLEKLQMARPNILGLRNNIYCMAQLLDNSDTAEPTKAGRGASQPPTPTPASDAFQRKLEGCRFLHGYHRFMHSVGRVFSKWGESPNRSRR | 0.016 µg/mL | 0.0125 µg/mL | MORE (<80% More potent) | –
